experiment: soluble fraction after stress (log2 fold change); higher = more stays soluble; pooled small domains, quantitative proteomics; conditions: stress: 50 degC
Outline: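 The stress applied to every library was 50°C. These custom libraries of small protein domains were pooled and measured at high throughput with quantitative proteomics as the read-out. Aggregation propensity is expressed as the base-two logarithm of the fold change in how much of each protein remains soluble. The higher the value, the more of that protein stays in solution.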

Compared with “HMILVLKPGAPEDLKNELIHDIEKMGLRVHVSVGEGTTIIGLIGDTSKISKYTFSSYEIVSNVLRVT”, “HMILYDDEYKGPRYRYGLHSRPLSPGAVPKGFIIHSDRPHPDFRHGTLDYPVKLPDDRAANFELIFIGEFD” is lower in “soluble fraction (log2)” value: -0.0106 for the first, -1.02 for the second.

First: HMIMMTLGEKIRSIRKAKGMTQQELAEKLNTTKQTIGKYEKGIVTNLPLFRINELARALSTTPAYLTGW
Second: HMIMPSDATEAKLLGVLGNEPLHVDEIRNQAELPIEKVSAALALMELKGMVRQVGGMNYVAVR
The “soluble fraction (log2)” value of the first is lower: -1.41 for the first, 0.117 for the second.

Compared with “HMIMQTTSDRINQRMRDLGLQHKDLVAATGASKGTVTNWINGVNNPTGKRLVQLAQALKTTSSWLLTGN”, “HMINDPSALGQRAFVDELLWMAGYVPEKIEIYQTLPNNSRVYRVKLDSVNGGFIFIRWDKKKKEHYV” is higher in “soluble fraction (log2)” value: -0.12 for the first, 0.114 for the second.

Compared with “HMINEEELLKIENIKRKYPDSKAALMPVLYFFQEKYGFISDDSIKEISQLLNISEVDIKGVVSFYEMFHEK”, “HMINEVVSLRDVPSFIGKAKRDVIRIAEENNLKIKINGNGYVKEQTPNPGNKYKSNQEIKVFLEPG” is higher in “soluble fraction (log2)” value: -0.59 for the first, 0.0894 for the second.

“HMINFSKNIISDTTSIKEAIEILNIISGRDNHILFVLNDKRQLIGTLSDGDVRRGMLASKTISQSVTEVM” and “HMINIDESIDESLSEDDAVLDLLERASASFTKAQEALLEGDLGRYQTLIEQADRLVAKALELLDEKN” are within 0.2 log units of each other in “soluble fraction (log2)” value: -0.351 for the first, -0.457 for the second.

Going from “HMINIQYSYNDGKETLHNLSPEVIAEKIMDDPNGYHIVWKQGMVGWVNANDIDDIAKLLRQKK” to “HMINKDNLIEEILKFINTKIADISSNNPLFDIVAKPYISKVVTNNVSKLDKALSLIADDKGMVDADGLLT”, the “soluble fraction (log2)” value falls from -0.0619 to -0.292.

Compared with “HMINLDGIGEKISRLRKEQGVTIRELSEYTGYSVGFLSNLETGKNSPTVESLQRVAEALRTDIIEILTK”, “HMINLNEVLANFQKSYPNLAGFKYDQGMDALVYEGNYIRLNGYMLSRINPTLFSMSPDDIFTYLKNGF” is lower in “soluble fraction (log2)” value: -0.312 for the first, -2.53 for the second.

First: HMINRMGRLVEALSHMIANTKPGARLPSEPELARQLGVSRATLREAMRTFEAQGMIHRRQGAGTFVVH
Second: HMINYSQKQLIAIQDELSKRFQALENESTKNNVTGFGVGLHYIDIDLIVNTPEKQKEFREKIMDSPAFRFN
The “soluble fraction (log2)” value of the first is higher: -0.402 for the first, -0.839 for the second.

“HMINYYELLKLDMNAAHEEINDAIKLESEKNTIPEDQIRTMKSIFFNTEFKKEYDQRLMNFLLT” and “HMIPDAIDPDGRFKWRAGEAVVGFGRHAGEPLKKIAIENPEFLRWILKADFSTDVKKIASDALKGYFPEK” are within 0.2 log units of each other in “soluble fraction (log2)” value: -0.319 for the first, -0.23 for the second.

“HMIPDLPAVGVNVHKERRRQQLSLDALAAGSGVSKAMLSQIESGKVNPTVATMWKIAHALGVDFELLLKGE” and “HMIPDPPALGSNLHRERRRQQLSLDALAAASGVSKAMLSQIEADKVNPTIATMWKIAHALNIDFETLLRGE” are within 0.2 log units of each other in “soluble fraction (log2)” value: -0.154 for the first, -0.283 for the second.

First: HMIPENKRVLISLTYIYGIGKKISQDILEKANIDSSIKTSQLTDDDVARIRQLIENDYLVEGELRV
Second: HMIPLPEDVASMRERLALTPEKADELFGLEDGSFARYEHGEEKVPFVVFQLLWLLGKYPHLIGELR
The “soluble fraction (log2)” value of the first is higher: 0.0489 for the first, -0.818 for the second.

First: HMIPRGFSRYYILELLQKKPHTGKEIIDNAIKESGGRWNPSPGLIYPLLGRLLDENLIEETNDGKYK
Second: HMIPSLTITVNEHSRQITRGTSLYTLRDALYPDADVLVVNGHPADSDRHLEEGDAVVLIRRGA
The “soluble fraction (log2)” value of the first is lower: -1.72 for the first, -0.275 for the second.

Going from “HMIQIQDIAFSEFLQELDKGNIVEVNIKGDLINGDLINGKKFKTVAPYDPNLVEKLSKQNVRINVEPIN” to “HMIQLKEHDVVRLRETIVENDEKIPAGTRGVVLSVYDGGRAFAVEVADDRAASAIITAFRDQLEVY”, the “soluble fraction (log2)” value falls from 0.125 to -0.136.

Going from “HMIQNTGMMESGDSIRGMALDAGFPLLMVVGYRGWTRKGNTPDSAAVYTEPFLNAFRLNYYLVEHDE” to “HMIQVNKTQALIIEEMRDNPNITLLELQKTLSLGRTAIQNNVSSLRKRQIIKRVGSNKNGYWEVTDK”, the “soluble fraction (log2)” value falls from 0.309 to -1.95.

Compared with “HMIRQETYLLVRKAVGALPVQMRKIIELAMQGKKNAEIAAQLSISEGTVHTLKKTAYKKLRDRLQE”, “HMIRQGTKQALLIEMLQRPEGASITEIVEATSWQAHTARGAISGALKKKLGLPITSEKHPERGTVYKL” is higher in “soluble fraction (log2)” value: -2.22 for the first, -0.685 for the second.

Going from “HMISAQEQALRNLKLSNGMTWKALAKALGITERSILSYVAAPGTKGYREMPAEVWHKLENISGH” to “HMISDAEWTIMKALWQSEDKKMTLKEIAEAVADSGWSYTTVRTMVGRLVEKEAIEADESHPRNFRYSAA”, the “soluble fraction (log2)” value falls from 0.165 to -1.23.

Compared with “HMISEGDIIKGTVIDVNEEEVILDLKYYAQGVIKAENLSNDPDFLAAGKISVGDEIEATVIKMDDGEGNIE”, “HMISESIPAKDALLRLLNTAYQTRTNAAGEFYFNDVPPGKYILQASVNDVEIIRENISINEN” is lower in “soluble fraction (log2)” value: 0.0355 for the first, -0.249 for the second.

First: HMISEWDAAYSYAKQYYEENGHLFVPKKYVTSEGAALGKWIWEQRDSYLGLSSYKISDKKIEMLEDIGMFW
Second: HMISINVIGEMISGSYGNTPFSRTYEKDIYEQMVKLSDDADQAQTVEEYNKILAEFSLLTTEDLK
The “soluble fraction (log2)” value of the first is lower: -4.02 for the first, -0.698 for the second.

Going from “HMISKWGELVDLAVQLDIIQKSGSWFSMGDERIGQGANSVKDYLIANPDIAEKVEAEVRENLWKLN” to “HMISKYLRIESDILSAIREGRLKPGDKLPGQSEMRRIYNVSAITVRKAFTDLINDGYLVGVRGSGTYVAKR”, the “soluble fraction (log2)” value falls from -0.129 to -0.703.

Going from “HMISQATMEKMGLTNRERQLVDFIVRGASNQEISEKMFISINTVKIHVSNIFRKAGVRSRTELMDKYP” to “HMISSKDIINDEDGARLGKIADVEIDVATGKILSVHVYRSFKLLHLFGNKDVVQIPWNKIMKIGSDVVIVE”, the “soluble fraction (log2)” value rises from -3.49 to -0.0123.

First: HMISVENLSNREFEIFQLIGNGFSTKEMAKKLNLSIYTVESHKKNIKEKLKLKNSSDLSKYAIQWVIMQN
Second: HMITANNYFNEVERIGVETLPETLRKGHDLVVRSTNSGTNWSNYQNNESIRKVIDLYLQKLNEYVSTST
The “soluble fraction (log2)” value of the first is lower: -0.503 for the first, 0.131 for the second.

Compared with “HMITGSIQPKNGKYYAVLNLYDHTGKRRPKWVSTGYTVKGNKKKAQEVLNELTRRYSAQLPPSK”, “HMITLPDFVGKDVETVKAWAKENGITLIVNKVEDSAKKDTVISQTPTTYDYSKIMKGSSFTVNVAKE” is higher in “soluble fraction (log2)” value: -0.512 for the first, -0.0122 for the second.

Compared with “HMITNLEPFKDFVRGFSGLHLEGVGQEKLAAALDERIRKTGSANERDYLQLIMEDVAERLKLINILT”, “HMITPAARLRALKIRLSVDEVAQIVQRLVNGETVYQIGKPDTGGHAKATVGKINALRLAGQLHFL” is lower in “soluble fraction (log2)” value: 0.0546 for the first, -1.28 for the second.

Going from “HMITTLLVENLQDVGMRLDHYLVYNLIKYSRSHIQSFIRSGDIRVNGKKVKTGYSLELKDLIHIEMP” to “HMITVPKVINMSETQARQTLDALGLNVTLSATQVMNDKIPYGYVAAQSYSAGKEVPAGTTIELTMSIGL”, the “soluble fraction (log2)” value rises from -3.75 to -0.945.

First: HMIVDYPSFVGKTKQELEKWAKENNIIIRYRQLSVTASDKVKAQLPATTTYKRIMKGSSIEVELEL
Second: HMIVIMKAKAEEEDVNRVIDTIQSLGLRTQLNLGAERMVVAVIGDISKIGEDNFFRIRAMKGVENTVFVSK
The “soluble fraction (log2)” value of the first is lower: -0.776 for the first, -0.396 for the second.

Going from “HMIVMPELRGKDLKEAERLLSSHNLRYELVDSVYDKSLAPGVVVEMVPQSGNTVKPGRIIFLSINA” to “HMIVNTTRAPYLLGETEQDAMRLARQAGLVPEIVRQSSAEPAGTVILQSHDFDYRMRRGSVILITVSTGPL”, the “soluble fraction (log2)” value falls from -0.878 to -2.15.

Going from “HMIVPPAIPFRALGIFGPRDRPIVTFEDGPRLINAREGDVLDGRFILRRVGRESVDFAFVGLPPEITRRIP” to “HMIVSEYIIIGGDKKEYGPVSMGEVGEWVQGGRANGDSKIKKVGTEEWGRLRDFPEFSAYLS”, the “soluble fraction (log2)” value rises from -0.466 to -0.00369.

“HMIVVMARETSTDDLEAIRERIESRGMVAQINLGVERTVIGVMGSIPPDFKDEMELMNGVVEVVMISK” and “HMIVVMKTSASERDLQEVIARIEQFGFATRSIVGSERATVSVLGAPLPDSLQEALERMPGVEEVVRITK” are within 0.2 log units of each other in “soluble fraction (log2)” value: -0.408 for the first, -0.344 for the second.

Going from “HMIYAEDFVGRQGTANTILRPSGRIEIEGEVYDAYTRGEYVEAGERVVVISQEGSTLKVRVV” to “HMIYQEGMQVKYQGKEYVISEIQDYKTYKTIKLDDNEGYLNGFITGSEILSFRNESELDLEI”, the “soluble fraction (log2)” value rises from -0.683 to -0.314.

Going from “HMIYSKSDLELFGIKKIDVMEENILMLILSEYELDQTPKNILIDEAVRLSKKFGADNAYKFVNATLDTLL” to “HMKAETILAIPENQPERLFPNNEDEARKIYRDLAREWHTDRNKSPKAQDVFSHLSKLYDIVIDRIKNKTWT”, the “soluble fraction (log2)” value rises from -0.944 to 0.152.

“HMKAGRNTLARQMAILEVLQKDGRALVDDLAARFETTPQTIRKDLSALAEVNQISRFHGGAALVG” and “HMKAKTYTVQYIDEGKIIKEEELEEGSIINAPEVTKEGHTFIGWYEGEEKYDVYEPITRNLILESKNEIN” are within 0.2 log units of each other in “soluble fraction (log2)” value: -0.0796 for the first, -0.137 for the second.

“HMKALEGMRTVFTLADLATEPVTVEITVLEAFKYTTTLEIVQRPVLREWMTNPSMLIRVYHDASTAE” and “HMKAMIIVMKPGADMATISKVLKTIETNGFKPHLSKGEETTVIGVIGDERKLNPDIFSTLEGVERIVPVA” are within 0.2 log units of each other in “soluble fraction (log2)” value: 0.144 for the first, 0.255 for the second.

First: HMKASTRELLDFVLSQRGVSTASVAKALGISVQNASTRLKKLSNEGLIIRSEASSLTGGIEFLYS
Second: HMKDASEFLGAKGKTITPLRPTGAAVINGEKVDVLAEGEFIPKNAEIVVIKVEGSKIIVRNANN
The “soluble fraction (log2)” value of the first is lower: -0.799 for the first, 0.143 for the second.

Going from “HMKDDLTWSEGLMPNVVGMGLRDAMFMLENSGLRVNYSGRGKVTRQSPQPGVRIKRGATVAIELRL” to “HMKDEHYLYIKARVDNGDYPHLSELKSAEEIELVMPKLLQDGIVEFNKETGEYTIGEDVKAEIERL”, the “soluble fraction (log2)” value rises from -0.395 to 0.108.

From the domain aggregation screens of Martell et al. (2025)
